US20230381350A1 (PRECIRIX N V, published 2023)
Values belong to the binder of their own block, whether it stands above or below them.

What was measured:
[1] = molecular target: T1, murine FAP recombinant protein (murine, UniProt P97321 26-761); assay: ELISA, coated murine FAP recombinant protein, HA-His6-tagged VHH extract, anti-HA detection
T1 construct: The protein was biotinylated for bio-layer interferometry; also called extracellular domain of murine FAP with N-terminal His6-tag
T1 sequence: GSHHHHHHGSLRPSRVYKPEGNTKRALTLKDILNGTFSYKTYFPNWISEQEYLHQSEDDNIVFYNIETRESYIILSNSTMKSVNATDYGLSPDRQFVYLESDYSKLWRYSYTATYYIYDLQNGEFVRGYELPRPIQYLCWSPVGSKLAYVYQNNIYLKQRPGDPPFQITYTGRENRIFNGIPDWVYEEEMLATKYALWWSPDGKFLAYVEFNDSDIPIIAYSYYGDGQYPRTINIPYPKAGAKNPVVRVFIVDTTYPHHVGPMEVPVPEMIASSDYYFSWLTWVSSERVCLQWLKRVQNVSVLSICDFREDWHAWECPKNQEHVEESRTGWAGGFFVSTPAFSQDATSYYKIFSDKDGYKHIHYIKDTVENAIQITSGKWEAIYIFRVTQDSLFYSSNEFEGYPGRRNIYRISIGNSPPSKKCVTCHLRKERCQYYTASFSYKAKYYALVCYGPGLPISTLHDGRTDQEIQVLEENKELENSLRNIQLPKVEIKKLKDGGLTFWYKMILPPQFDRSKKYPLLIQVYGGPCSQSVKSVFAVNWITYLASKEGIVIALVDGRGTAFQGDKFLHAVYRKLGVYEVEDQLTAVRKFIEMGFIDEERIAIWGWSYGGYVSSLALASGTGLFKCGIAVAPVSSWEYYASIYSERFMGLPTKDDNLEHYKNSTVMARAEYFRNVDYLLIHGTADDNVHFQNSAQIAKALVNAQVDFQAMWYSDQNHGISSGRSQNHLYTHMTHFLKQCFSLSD
Procedure: The day before measurement, 0.1 μg recombinant protein at a concentration of 1 μg/mL in 100 mM NaHCO₃, pH 8.2 was coated in a 96-well ELISA plate (Nunc MaxiSorp). Per VHH clone also a blank coated well was foreseen (only buffer). The wells were overcoated with protein-free T20 (PBS) blocking buffer (Pierce). After washing with PBS, pH7.4, 0.05% Tween, VHH-containing bacterial freeze-thaw extract was added to every well. Binding of HA-His₆-tagged VHHs was detected by using mouse anti-HA.11 epitope tag (clone 16B12, Biolegend) as the primary Ab and goat anti-mouse IgG (whole molecule) alkaline phosphatase conjugate (Sigma-Aldrich) as the secondary Ab, with thorough washing with PBS, pH 7.4, 0.05% Tween in between. Signals were developed using phosphatase substrate (Sigma-Aldrich) in AP blot buffer (100 mM NaCl, 50 mM MgCl₂, 100 mM Tris, pH 9.5). The absorbance was determined at 405 nm using an absorbance microplate reader (Molecular Devices). Per clone the ratio was determined between the absorbance in the antigen-coated well versus the well without antigen.

[2] = molecular target: T2, human FAP recombinant protein (human, UniProt Q12884 26-760); assay: ELISA on coated recombinant protein, VHH-containing bacterial extract, anti-HA detection, signal-to-background ratio
T2 construct: The protein was biotinylated with sulfo-NHS-SS-biotin for bio-layer interferometry; also called extracellular domain of human FAP with N-terminal His6-tag
T2 sequence: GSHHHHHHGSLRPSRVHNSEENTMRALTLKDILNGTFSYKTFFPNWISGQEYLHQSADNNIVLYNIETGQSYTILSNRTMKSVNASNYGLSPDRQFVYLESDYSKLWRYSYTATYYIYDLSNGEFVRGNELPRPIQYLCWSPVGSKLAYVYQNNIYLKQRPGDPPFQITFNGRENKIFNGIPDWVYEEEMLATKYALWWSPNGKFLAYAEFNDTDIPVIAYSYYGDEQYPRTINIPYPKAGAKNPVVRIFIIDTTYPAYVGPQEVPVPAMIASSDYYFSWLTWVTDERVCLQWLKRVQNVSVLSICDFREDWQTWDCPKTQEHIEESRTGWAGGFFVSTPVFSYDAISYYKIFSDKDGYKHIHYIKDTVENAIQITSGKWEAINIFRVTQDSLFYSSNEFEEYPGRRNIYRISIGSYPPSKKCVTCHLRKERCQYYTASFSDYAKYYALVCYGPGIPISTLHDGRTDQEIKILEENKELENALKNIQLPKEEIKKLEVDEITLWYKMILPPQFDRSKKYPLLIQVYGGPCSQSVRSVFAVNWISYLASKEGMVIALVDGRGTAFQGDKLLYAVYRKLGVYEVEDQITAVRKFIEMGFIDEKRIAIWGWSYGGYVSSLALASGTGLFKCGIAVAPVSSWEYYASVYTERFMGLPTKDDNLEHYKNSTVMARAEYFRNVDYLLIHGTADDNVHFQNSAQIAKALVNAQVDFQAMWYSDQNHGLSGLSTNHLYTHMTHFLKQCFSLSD
In short: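 Recombinant protein coated overnight (0.1 μg, 1 μg/mL in NaHCO₃ pH 8.2), blocked, then probed with VHH-containing bacterial freeze-thaw extract. HA-tagged VHH detected via anti-HA and AP-conjugated secondary antibody, absorbance at 405 nm; value is ratio of antigen-coated to uncoated-well signal per clone.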

[3] = molecular target: T3, human FAP expressed on cells (human, UniProt Q12884 1-760); assay: flow cytometry on human FAP-expressing GM05389 cells, VHH-containing bacterial extract, anti-HA and PE-conjugated secondary detection, Δmfi against cells without VHH
T3 construct: also called human FAP cell surface protein; human FAP receptor
T3 sequence: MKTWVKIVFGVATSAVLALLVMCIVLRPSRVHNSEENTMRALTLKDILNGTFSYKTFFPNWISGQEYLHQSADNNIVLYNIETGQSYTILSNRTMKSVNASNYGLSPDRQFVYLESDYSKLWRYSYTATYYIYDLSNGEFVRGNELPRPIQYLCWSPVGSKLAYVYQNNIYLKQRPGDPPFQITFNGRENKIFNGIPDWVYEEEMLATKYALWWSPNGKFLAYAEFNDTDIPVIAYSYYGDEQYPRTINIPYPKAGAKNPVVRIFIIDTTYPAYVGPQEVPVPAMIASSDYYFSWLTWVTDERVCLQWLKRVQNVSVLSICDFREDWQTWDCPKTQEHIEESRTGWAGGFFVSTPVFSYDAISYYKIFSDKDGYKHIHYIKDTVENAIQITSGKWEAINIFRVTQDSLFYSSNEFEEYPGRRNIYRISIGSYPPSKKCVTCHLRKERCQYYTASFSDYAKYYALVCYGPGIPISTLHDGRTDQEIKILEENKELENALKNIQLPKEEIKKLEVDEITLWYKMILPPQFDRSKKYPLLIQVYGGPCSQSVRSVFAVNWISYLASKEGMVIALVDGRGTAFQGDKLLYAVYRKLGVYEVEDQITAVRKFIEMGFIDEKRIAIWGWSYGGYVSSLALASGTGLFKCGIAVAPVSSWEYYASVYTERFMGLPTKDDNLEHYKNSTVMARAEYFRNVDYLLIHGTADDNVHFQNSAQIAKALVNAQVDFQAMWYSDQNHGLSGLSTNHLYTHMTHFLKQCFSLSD
Procedure: The cell binding was tested by flow cytometry experiments. Per test condition 1×10⁵ to 2×10⁵ cells, washed in PBS, 0.5% BSA, were pelleted in the well of a 96-well U-bottom plate. The cell pellets were resuspended and incubated with the VHH-containing bacterial freeze-thaw extracts (diluted in PBS, 0.5% BSA). Binding of HA-His₆-tagged VHHs was detected by using mouse anti-HA.11 epitope tag (clone 16B12, Biolegend) as the primary detection antibody and PE-conjugated rat anti-mouse IgG1 (clone A85-1, BD Pharmingen) as the secondary detection antibody, with washing with PBS, 0.5% BSA in between, and finally resuspended in PBS, 0.5% BSA.
Flow cytometry was performed on a FACS Canto II (BD Biosciences). Data were analyzed using FlowJo software. Based on the forward scatter-side scatter plot a single cell gate was drawn. The median fluorescence intensity was determined on a histogram for the phycoerythrin signal of the single cells. The difference in median fluorescence intensity (A mfi) was calculated relative to a test condition without incubation of VHHs (cells+primary Ab+secondary Ab), and are shown in FIG. 3.

[4] = molecular target: T1, murine FAP recombinant protein; assay: bio-layer interferometry (Octet RED96), biotinylated murine FAP on streptavidin sensor
Procedure: (§1) The kinetic parameters of antigen binding by purified VHHs were determined via bio-layer interferometry with an Octet RED96 instrument (ForteBio). The assay was performed at 25° C. with shaking at 1000 rpm. Streptavidin coated SA sensors were equilibrated in assay buffer (HBS supplemented with 0.5% BSA, 0.1% Tween), before loading for 5 min with the biotinylated FAP recombinant protein at a concentration of 5 μg/ml. His₆-tagged VHHs were analyzed in a threefold serial dilution from 30 nM to 0.4 nM in assay buffer (except for VHH B3 binding murine FAP recombinant protein, for which a fivefold serial dilution from 1000 nM to 1.6 nM was employed). First the baseline was measured for 180 s in assay buffer, followed by 5 subsequent association phases of 180 s with the VHH preparations in increasing order of concentration, with 75 s intermediate dissociation phases in assay buffer in between, and a final dissociation phase in assay buffer of 30 min. In every assay a reference sensor loaded with FAP recombinant protein was included that was incubated in assay buffer during the association phases.
Binding curves were exported and analyzed using the BIAevaluation analysis software (GE Healthcare). First the y-axes of the different curves were aligned to the median of the last 5 s of the baseline measurement. […]

[5] = molecular target: T2, human FAP recombinant protein; assay: bio-layer interferometry (Octet RED96), biotinylated human FAP on streptavidin sensor, kinetic titration, 25 °C
Procedure: as §1
Binding curves were exported and analyzed using the BIAevaluation analysis software (GE Healthcare). First the y-axes of the different curves were aligned to the median of the last 5 s of the baseline measurement. Subsequently, the sensorgram of the reference sensor was subtracted from all other sensorgrams. The resulting binding curve was fitted using a general fit with the ‘kinetic titration with drift’ binding model (1:1 (antigen:analyte) model; Karlsson, R. et al (2006), Analyzing a kinetic titration series using affinity biosensors. Analytical Biochemistry 349: 136-147), with Rmax fitted global, RI local and drift set to 0.
Table 7 gives an overview of the kinetic parameters of antigen binding for His₆-tagged VHHs B1, B2, B3 and B4 (SEQ ID NO: 21-24), as determined by bio-layer interferometry with biotinylated human or murine FAP recombinant protein that was loaded on the sensor.

[6] = molecular target: T3, human FAP expressed on cells; assay: saturation binding of 111In-DOTA-labelled untagged VHH B1 on human FAP-expressing GM05389 cells
Procedure: Secondly, untagged human/murine FAP-crossreactive VHH B1 was radiolabeled with ¹¹¹In, after which its in vitro and in vivo diagnostic potential was evaluated. The binding potential of the resulting radio-conjugate was assessed to confirm that this was not affected by the conjugation of ¹¹¹In-DOTA to the amino acid sequence of the VHH. To this, human FAP-expressing GM05389 cells were incubated with serial dilutions with concentrations ranging from 0 to 33 nM of the ¹¹¹In-labelled VHHs. A 100-fold excess of the corresponding unlabeled VHH was added in parallel to saturate the human FAP receptors expressed on cancer cells, to assess non-specific binding.

[7] = molecular target: T3, human FAP expressed on cells; assay: saturation binding of 177Lu-DTPA-labelled untagged VHH B1 on human FAP-expressing GM05389 cells
Procedure: (§2) In a first part, its in vitro behaviour was assessed by means of investigating its cellular binding and retention overtime. The binding potential of the resulting radioconjugates was assessed to confirm that this was not affected by the introduction of ¹⁷⁷Lu-DTPA into the amino acid sequence of the VHH. To this, human FAP-expressing GM05389 and HEK-293 cells were incubated with serial dilutions with concentrations ranging from 0 to 33 nM of ¹⁷⁷Lu-labeled untagged VHH B1. A 100-fold excess of the corresponding unlabeled VHH was added in parallel to saturate the human FAP receptors expressed on cancer cells, to assess non-specific binding.

[8] = molecular target: T3, human FAP expressed on cells; assay: saturation binding of 177Lu-DTPA-labelled untagged VHH B1 on human FAP-expressing HEK-293 cells
Procedure: as §2

[9] = molecular target: T3, human FAP expressed on cells; assay: saturation binding of 225Ac-DOTA-labelled untagged VHH B1 on human FAP-expressing GM05389 cells

B2: His6-tagged VHH B3 (VHH)
VHH: DVQLVESGGGLVQAGGSLRLSCAVSGRLFSTNAMGWYRQAPGKQRELVAGITGGDRSNYADSVKGRFTISRDNGKNTLYLQMNSLKPEDTAVYYCNFYPPIVGDYWGQGTQVTVSS
notes: Purified, unlabelled; used in bio-layer interferometry; also called B3 with His6-tag
- binding result [4]: no binding
- Kd [5]: 160 pM
- koff [5]: 5.4e-05 s⁻¹
- kon [5]: 340000 M⁻¹ s⁻¹

B4: 177Lu-labeled untagged VHH B1 (VHH)
VHH: DVQLVESGGGLVQPGGSLRLSCVASGRLSSSNSMAWYRQVPGKRRELVAGITGGGETNYADFVGGRFTISRDNAKNGLYLQLNGLKPEDTAAYYCNFWPPLINYWGQGTQVTVSS
modifications: 177Lu-DTPA (p-SCN-Bn-CHX-A''-DTPA) conjugated to lysine side-chain amines
notes: also called 177Lu-B1; 177Lu-DTPA-VHH
- EC50 [7]: 500 pM
- EC50 [8]: 800 pM

B5: 225Ac-labeled untagged VHH B1 (VHH)
VHH: B4 VHH
modifications: 225Ac-DOTA (p-SCN-Bn-DOTA) conjugated to lysine side-chain amines
notes: also called 225Ac-DOTA-VHH
- EC50 [9]: 400 pM

Further lines, results first:

- signal-to-background ratio [1]: > 30
- binding result [2]: no binding
- binding result [3]: no binding
B1: HA-His6-tagged VHH B4 (VHH)
VHH: QVQLQESGGGLVQVGGSLRLSCVASGFTFSSYYMSWVRQAPGKGLEWVASIYADGDMTYYADSVRGRFTISRDNAKNTLYLQMNSLKSEDTAVYYCAKDPLPPYHVNQGTQVTVSS
notes: also called B4 with HA-His6-tag

- EC50 [6]: 600 pM
B3: 111In-labeled untagged VHH B1 (VHH)
VHH: B4 VHH
modifications: 111In-DOTA (p-SCN-Bn-DOTA) conjugated to lysine side-chain amines
